Reference: US20130129845A1, “SCREENING METHOD FOR CHRONIC INFLAMMATION INHIBITORS OR CANCER METASTASIS INHIBITORS USING INHIBITION OF BINDING BETWEEN EMMPRIN AND S100A9 AS INDEX” (priority 2010, published 2013)

T1: EMMPRIN (Homo sapiens, UniProt P35613)
T1 construct: cDNA coding for the human EMMPRIN extracellular domain (with a myc-HA-Flag-6His tag added at the C-terminus); made in house; host or cells: HEK293 (transfected)
T1 sequence (P35613 138-325 limits assumed): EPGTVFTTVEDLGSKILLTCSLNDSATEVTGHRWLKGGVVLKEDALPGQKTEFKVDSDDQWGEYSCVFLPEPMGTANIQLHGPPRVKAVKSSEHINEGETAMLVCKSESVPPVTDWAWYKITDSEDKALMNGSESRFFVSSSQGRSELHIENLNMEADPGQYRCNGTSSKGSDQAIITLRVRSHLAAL

B1: soluble EMMPRIN: purified recombinant human EMMPRIN extracellular domain with myc-HA-Flag-6His tag at the C-terminus (protein, UniProt P35613 138-323, looked up)
extracellular domain: EPGTVFTTVEDLGSKILLTCSLNDSATEVTGHRWLKGGVVLKEDALPGQKTEFKVDSDDQWGEYSCVFLPEPMGTANIQLHGPPRVKAVKSSEHINEGETAMLVCKSESVPPVTDWAWYKITDSEDKALMNGSESRFFVSSSQGRSELHIENLNMEADPGQYRCNGTSSKGSDQAIITLRVRSHLA
modifications: extracellular domain C-terminal myc-HA-Flag-6His tag
notes: purified recombinant human EMMPRIN extracellular domain with myc-HA-Flag-6His tag at the C-terminus

Assays:
EMMPRIN = target: T1, EMMPRIN; assay: Identification of EMMPRIN-binding proteins by immunoprecipitation and Western blotting; settings: culture supernatants mixed; HA and Myc antibody; FIG. 6
Source text: EMMPRIN-binding proteins were identified by immunoprecipitation and Western blotting, for confirmation that EMMPRIN is a novel receptor for S100 protein. […] The S100 proteins used were S100A8 and S100A9 protein. HEK293 cells were transfected with plasmids coding for the proteins (with HA tags attached to the C-termini), and the proteins were isolated from the respective culture supernatants.
In order to analyze binding between EMMPRIN and S100A8 and S100A9 protein, the culture supernatants containing the respective proteins were mixed and reacted, and then HA antibody and Myc antibody were used for immunoprecipitation.

[1] = system: MMP-1 and MMP-10 expression; assay: MMP expression in keratinocytes by real-time quantitative PCR; type: cell-based, human; settings: FIG. 5
Experimental: (§1) Using real-time quantitative PCR, it was then investigated whether addition of S100A9 also accelerates expression of IL-8 (CXCL-8), TNFα, IL1-F9 and CXCL-1, and whether suppressing expression of EMMPRIN has any effect on expression of these cytokines. The same method was also used to examine the effect of S100A9 stimulation on MMP-1 and MMP-10 expression.
(§2) Growth-phase NHEK, cultured in EpiLife™-KG2 (Cascade Biologies) were exposed for 3 hours after exchanging to the same culture medium containing and not containing 2 mM calcium chloride and S100A8 or S100A9 (10 μg/ml each), and a MagNA™ Pure mRNA extraction kit and a MagNA Pure™ device (Roche Diagnostics, Tokyo, Japan) were used for extraction of the mRNA. The obtained mRNA was reverse transcripted using SuperScript™ II (Invitrogen Corporation, Carlsbad, Calif., U.S.). Real-time quantitative PCR was performed on a LightCycler high-speed thermal cycler system using a LightCycler FastStart DNA master SYBR green I kit (Roche Diagnostics), according to the manufacturer's instructions. […] The expression level of each gene was quantitatively analyzed using LightCycler analysis software (NPL 11: Morrison T B et al., Biotechniques (1998)24:954-958, 960, 962). […]

[2] = system: IL-8 (CXCL-8), TNFα, IL1-F9 and CXCL-1 expression; assay: Cytokine expression in keratinocytes (NHEK) by real-time quantitative PCR; type: cell-based, human; settings: S100A9-added sample with control siRNA (A9/LF); FIG. 4
Experimental: as §1, §2

MMP-1 expression = assay: Effect of soluble EMMPRIN on MMP expression in keratinocytes; type: cell-based, human
Source text: It was therefore investigated whether soluble EMMPRIN actually accelerates expression of MMP.
It is believed that MMP expression was suppressed when soluble EMMPRIN and S100A9 were both present because S100A9 which induces MMP production was scavenged by soluble EMMPRIN, with both forming a bonded complex.

| Molecule | binding to EMMPRIN (band in Western blot after immunoprecipitation) (EMMPRIN) | expression of MMP on addition of S100A9 [1] | expression of cytokines (IL-8, TNFα, IL1-F9, CXCL-1) on addition of S100A9 [2] | MMP-1 expression (MMP-1 expression; S100A9 alone, FIG. 7) | MMP-1-inducing effect (MMP-1 expression; added to keratinocytes at 0.025, 0.25 and 2.5 μM, FIG. 7) | MMP1 expression-accelerating effect of S100A9 (MMP-1 expression; both soluble EMMPRIN and S100A9 added to keratinocytes, FIG. 7) | IL-8 expression (MMP-1 expression; results not shown) | MMP-10 expression (MMP-1 expression; results not shown) | TNFα expression (MMP-1 expression; results not shown) |
| --- | --- | --- | --- | --- | --- | --- | --- | --- | --- |
| S100A8: EF-hand calcium-binding S100 family protein | only a band for EMMPRIN near 32 kDa was confirmed | – | – | – | – | – | – | – | – |
| S100A9: EF-hand calcium-binding S100 family protein, added to keratinocytes as stimulus | a band representing their bound form was confirmed near 47.5 kDa | accelerated expression of MMP | induced expressed of all of the cytokines | notably accelerated | – | – | – | – | – |
| B1 | – | – | – | – | virtually no MMP-1-inducing effect | significantly suppressed | significantly suppressed | significantly suppressed | significantly suppressed |
